In article PMC9022012 (Journal of immunology (Baltimore, Md. : 1950), 2020):
One block for each molecule: values may come before it. No end group written: not given here.

Tests used:
[1] = molecular target: HLA-DRB4 (DRB4*01:01) (Homo sapiens, UniProt P01903+P13762, G164S); assay: Competitive ELISA HLA class II peptide-binding assay, DRB4*01:01
[2] = molecular target: HLA-DQ8 (DQA1*03:01/DQB1*03:02) (Homo sapiens, UniProt P01909+P01920, A209T/A45G/C70Q/D89A/DUP78-78/E183D/E77G/F237L/G63E/H199R/I129T/K197E/L178F/L74F/L98V/Q57E/Q76R/S185I/S97I/T217I/T49S/V73L/Y58L); assay: Competitive ELISA HLA class II peptide-binding assay, DQ8
[3] = molecular target: HLA-DQ2 (DQA1*05:01/DQB1*02:01) (Homo sapiens, UniProt P01909+P01920, A45G/A70V/D89A/E106A/E77G/E98D/H199R/L107V/N214S/P84L/P87L/T103K/T109R/T172A/T60S/V78E/V99I/Y58L/Y62S/Y69I/Y79F); assay: Competitive ELISA HLA class II peptide-binding assay, DQ2
[4] = molecular target: HLA-DR3 (DRB1*03:01) (Homo sapiens, UniProt P01903+P01911, A100K/A102G/A103R/A169T/F55Y/I96L/K41T/L162R/M171V/P40S/Q125H/Q178H/Q39Y/R42S/S66N/T106N/T262R/W38E/Y61H); assay: Competitive ELISA HLA class II peptide-binding assay, DRB1*03:01
[5] = molecular target: HLA-DR4 (DRB1*04:01) (Homo sapiens, UniProt P01903+P01911, A100K/A169T/F76Y/I96L/K127E/L162R/M171V/N62H/P40V/Q125Y/R42H/S133A/S149N/S66Y/V115G/V209L/W38E); assay: Competitive ELISA HLA class II peptide-binding assay, DRB1*04:01
[6] = molecular target: T1, proinsulin (B-chain) peptide on HLA-DQA1*05:01 / HLA-DQB1*02:01 (human); assay: proliferation
T1 peptide: VCGERGFFY

[7] = molecular target: T2, proinsulin (B-chain) peptide on HLA-DQA1*05:01 / HLA-DQB1*02:01 (human); assay: proliferation
T2 peptide: ALYLVCGERG

[8] = molecular target: T3, proinsulin (C-peptide) peptide on HLA-DRA*01:01 / HLA-DRB1*04:04 (human); assay: proliferation
T3 peptide: PLALEGSLQ

[9] = molecular target: T4, proinsulin (C-peptide) peptide on HLA-DRA*01:01 / HLA-DRB1*04:04 (human); assay: proliferation
T4 peptide: PLALEGSLQK

[10] = molecular target: T5, proinsulin (C-peptide) peptide on HLA-DRA*01:01 / HLA-DRB1*03:01 (human); assay: proliferation
T5 peptide: QPLALEGSLQKR

[11] = molecular target: T6, proinsulin (C-peptide) peptide on HLA-DQA1*05:01 / HLA-DQB1*02:01 (human); assay: proliferation
T6 peptide: SLQPLALEGSLQ

[12] = molecular target: T7, proinsulin (C-peptide) peptide on HLA-DRA*01:01 / HLA-DRB1*04:01 (human); assay: proliferation
T7 peptide: SLQPLALEGSL

[13] = molecular target: T8, proinsulin (C-peptide) peptide on HLA-DQA1*03:01 / HLA-DQB1*03:02 (human); assay: proliferation
T8 peptide: GGPGAGSLQPL

binding affinity to DQ8, in words [2]: moderate to high
binding affinity to DQ2, in words [3]: did not show detectable binding affinity
Molecule: B14-28: overlapping proinsulin peptide (15-mer) (ALYLVCGERGFFYTP; UniProt P01308 38-52, looked up, fragment) [Peptide B14-28]

binding affinity to DQ8, in words [2]: moderate to high
binding affinity to DQ2, in words [3]: moderate to high
Molecule: GIVEQCCTSICSLYQ [Peptide A1-15]

binding result [7]: recognises
B2: Clone 24 (TCR)
alpha TRAV8-2 TRAJ20 CDR3: CAVSEAYKLSF
beta TRBV5-8 TRBJ2-5 CDR3: CASTEGIQETQYF

binding result [9]: recognises
B4: Clone 3 (TCR)
alpha TRAV19 TRAJ49 CDR3: CALSDRTGNQFYF
beta TRBV9 TRBJ1-2 CDR3: CASRLSGTNIPPTYGYTF

binding result [11]: recognises
B7: Clone 22 (TCR)
alpha TRAV2 TRAJ8 CDR3: CAVEDHGTGFQKLVF
beta TRBV4-3 TRBJ2-3 CDR3: CASSQETGPTQYF

binding result [13]: recognises
B9: Clone 23 (TCR)
alpha TRAV12-3 TRAJ33 CDR3: CAMSARSNYQLIW
beta TRBV4-3 TRBJ2-3 CDR3: CASSKMGPRTDTQYF

More lines, now with the values behind:

Molecule: CC[C@H](C)[C@H](NC(=O)[C@@H](NC(=O)[C@H](C)NC(=O)[C@H](CCCCN)NC(=O)[C@H](CC(=O)O)NC(=O)[C@@H](NC(=O)[C@H](CCC(=O)O)NC(=O)[C@@H](NC(=O)[C@H](C)NC(=O)[C@H](CC(C)C)NC(=O)[C@H](CC(C)C)NC(=O)[C@H](CC(=O)O)NC(=O)CNC(=O)[C@H](C)N)[C@@H](C)CC)[C@@H](C)O)[C@@H](C)O)C(=O)O [E2/E7]
IC50 [1]: 63 nM

Molecule: ADVEVYRAVTPLGPPD [DQB45-57, reference compound]
IC50 [2]: 730 nM

Molecule: B11-25: overlapping proinsulin peptide (15-mer) (LVEALYLVCGERGFF; UniProt P01308 35-49, looked up, fragment) [Peptide B11-25]
binding affinity to DQ8, in words [2]: moderate to high
binding affinity to DQ2, in words [3]: moderate (binding ratio below 100 (moderate binding))

Molecule: B17-C1: overlapping proinsulin peptide (15-mer) (LVCGERGFFYTPKTR; UniProt P01308 41-55, looked up, fragment) [Peptide B17-C1]
binding affinity to DQ2, in words [3]: did not show detectable binding affinity

Molecule: B20-C4: overlapping proinsulin peptide (15-mer) (GERGFFYTPKTRREA; UniProt P01308 44-58, looked up, fragment) [Peptide B20-C4]
binding affinity to DRB1*03:01, in words [4]: high (below 10 (high binding))

Molecule: C13-27: overlapping proinsulin peptide (15-mer) (ELGGGPGAGSLQPLA; UniProt P01308 67-81, looked up, fragment) [Peptide C13-27]
binding affinity to DQ8, in words [2]: did not show detectable binding affinity

Molecule: C16-30: overlapping proinsulin peptide (15-mer) (GGPGAGSLQPLALEG; UniProt P01308 70-84, looked up, fragment) [Peptide C16-30]
binding affinity to DQ8, in words [2]: did not show detectable binding affinity

Molecule: C19-33: overlapping proinsulin peptide (15-mer) (GAGSLQPLALEGSLQ; UniProt P01308 73-87, looked up, fragment) [Peptide C19-33]
binding affinity to DQ8, in words [2]: moderate to high
binding affinity to DRB1*03:01, in words [4]: abrogated
binding affinity to DQ2, in words [3]: moderate (binding ratio below 100 (moderate binding))
binding affinity to DRB1*04:01, in words [5]: abrogated

B1: Clone 19 (TCR)
alpha TRAV29 TRAJ33 CDR3: CAASPSDSNYQLIW
beta TRBV7-2 TRBJ1-1 CDR3: CASSFRRGSMNTEAFF
binding result [6]: recognises

B3: Clone 2 (TCR)
alpha TRAV13-1 TRAJ17 CDR3: CAASSKAAGNKLTF
beta TRBV6-1 TRBJ1-2 CDR3: CASSMTQGLDYGYTF
binding result [8]: recognises

B5: Clone 1 (TCR)
alpha TRAV41 TRAJ49 CDR3: CAASNTGNQFYF
beta TRBV14 TRBJ2-7 CDR3: CASSQALAGVAEQYF
binding result [9]: recognises

B6: Clone 11 (TCR)
alpha TRAV13-1 TRAJ47 CDR3: CAAMCKLVF
beta TRBV18 TRBJ1-2 CDR3: CASSPDRQGVEYTF
binding result [10]: recognises

B8: Clone 13 (TCR)
alpha TRAV17 TRAJ11 CDR3: CATALISGYSTLTF
beta TRBV12-3 TRBJ2-1 CDR3: CASRQQGVGYNEQFF
binding result [12]: recognises
